Data published in US20240293512A1 (HANMI PHARM, published 2024).
Bridge positions count the residues as written; N and C are the ends. Square brackets hold non-standard residues; d marks the D form. Ends that are not written are not given here. * marks the point of attachment. Acetyl(2-(4-imidazolyl)) = O=C(Cc1c[nH]cn1)*; Aib = CC(C)(N)C(=O)O

Columns and labels:
Assay in all cases: cell-based or functional assay
human GLP-1 receptor = human GLP-1 receptor (human, UniProt P43220 24-463)
human GCG receptor = human GCG receptor (human, UniProt P47871 26-477)
human GCG receptor, sequence (P47871 26-477): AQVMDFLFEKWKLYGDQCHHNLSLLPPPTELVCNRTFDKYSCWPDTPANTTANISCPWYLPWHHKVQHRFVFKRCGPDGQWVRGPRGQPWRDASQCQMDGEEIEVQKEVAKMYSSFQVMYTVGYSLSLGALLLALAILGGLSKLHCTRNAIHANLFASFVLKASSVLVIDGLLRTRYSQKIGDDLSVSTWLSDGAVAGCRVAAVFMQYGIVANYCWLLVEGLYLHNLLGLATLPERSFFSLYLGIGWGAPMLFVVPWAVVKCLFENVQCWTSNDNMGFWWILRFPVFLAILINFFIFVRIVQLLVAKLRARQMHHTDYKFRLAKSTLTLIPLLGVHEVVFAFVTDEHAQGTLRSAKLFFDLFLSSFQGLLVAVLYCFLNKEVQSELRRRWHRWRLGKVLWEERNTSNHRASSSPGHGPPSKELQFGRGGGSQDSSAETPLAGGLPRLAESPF

human GIP receptor = target: T1, human GIP receptor (human, UniProt P48546 22-466)
T1 sequence (looked up): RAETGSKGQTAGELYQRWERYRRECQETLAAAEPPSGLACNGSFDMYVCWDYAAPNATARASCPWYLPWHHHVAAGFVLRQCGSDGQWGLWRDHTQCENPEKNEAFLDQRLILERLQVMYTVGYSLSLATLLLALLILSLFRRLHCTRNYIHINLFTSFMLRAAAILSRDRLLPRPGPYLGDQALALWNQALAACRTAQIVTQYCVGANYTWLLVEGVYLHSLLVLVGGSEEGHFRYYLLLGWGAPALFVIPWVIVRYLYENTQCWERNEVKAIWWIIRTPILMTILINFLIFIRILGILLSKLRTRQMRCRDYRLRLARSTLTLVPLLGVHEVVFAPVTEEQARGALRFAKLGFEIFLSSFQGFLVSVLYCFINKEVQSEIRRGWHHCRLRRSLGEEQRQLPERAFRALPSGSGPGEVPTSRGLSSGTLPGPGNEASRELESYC

Binder	In vitro activity compared with native peptide (%) vs GLP-1 (cAMP EC50) (human GLP-1 receptor)	In vitro activity compared with native peptide (%) vs Glucagon (cAMP EC50) (human GCG receptor)	In vitro activity compared with native peptide (%) vs GIP (cAMP EC50) (human GIP receptor)
{Acetyl(2-(4-imidazolyl))}-[Aib]QGTFTSDCSKYLDERAAQDFVQWLLDGGPSSGAPPPS [triple agonist of SEQ ID NO: 63]	15.3%	< 0.1%	< 0.1%
H[Aib]QGTFTSDYSKYLDEKRQKEFVNWLLAQC (bridge (positions not given here); also: ring formation between two underlined residues) [triple agonist of SEQ ID NO: 56]	57.9%	4.9%	0.8%
Y[Aib]QGTFTSDYSKYLDECAAKEFVQWLLDHHPSSGQPPPS (bridge 16-20) [triple agonist of SEQ ID NO: 64]	64.6%	60.1%	92.9%
Y[Aib]QGTFTSDCSKYLDERAAKDFVQWLLDHHPSSGQPPPS (bridge 16-20) [triple agonist of SEQ ID NO: 72]	11.5%	1%	1.6%
{Acetyl(2-(4-imidazolyl))}-[Aib]QGTFTSDYSKYLDECRAKEFVQWLLDHHPSSGQPPPS (bridge 15-19) [triple agonist of SEQ ID NO: 73]	22.6%	5.4%	3%
Y[Aib]QGTFTSDYSKCLDEKAAKEFVQWLLDHHPSSGQPPPS (bridge 16-20) [triple agonist of SEQ ID NO: 68]	27.9%	8.8%	107%
Y[Aib]QGTFTSDYSKYLDECAAKDFVQWLLDHHPSSGQPPPS (bridge (positions not given here); ends not checked; also: ring formation between two underlined residues) [triple agonist of SEQ ID NO: 67]	28.5%	46.2%	39.8%
{Acetyl(2-(4-imidazolyl))}-[Aib]QGTFTSDYSIAMDEKHCKDFVNWLLNTK (bridge 15-19) [triple agonist of SEQ ID NO: 60]	106%	< 0.1%	8.2%
{Acetyl(2-(4-imidazolyl))}-[Aib]QGTFTSDYSKCLDEKRAKEFVQWLLDHHPSSGQPPPS (bridge 15-19) [triple agonist of SEQ ID NO: 74]	12.9%	0.9%	1%
{Acetyl(2-(4-imidazolyl))}-[Aib]QGTFTSDKSKYLDERAAQDFVQWLLDGGPSSGAPPPS [triple agonist of SEQ ID NO: 62]	5.2%	< 0.1%	< 0.1%
{Acetyl(2-(4-imidazolyl))}-[Aib]QGTFTSDYSICMDEKHQKDFVNWLLNTK (bridge 15-19) [triple agonist of SEQ ID NO: 59]	40.3%	< 0.1%	4%
Y[Aib]QGTFTSDYSKYLDECRAKDFVQWLLDHHPSSGQPPPS (bridge 16-20) [triple agonist of SEQ ID NO: 66]	15.8%	172%	17.2%
H[Aib]QGTFTSDYSKCLDEKRAKEFVQWLLDHHPSSGQPPPS (bridge 16-20) [triple agonist of SEQ ID NO: 65]	95.4%	25.2%	11.6%
H[Aib]QGTFTSDYSIAMDEIHQKDFVNWLLNTC (bridge 16-20) [triple agonist of SEQ ID NO: 57]	11.7%	< 0.1%	0.3%
Y[Aib]QGTFTSDYSKYLDEKRAKDFVQWLLDHHPSSGQPPPSC (bridge 16-20) [triple agonist of SEQ ID NO: 76]	10.3%	47.6%	11.7%
H[Aib]QGTFTSDVSKYLDGQAAKEFVAWLLKGC [triple agonist of SEQ ID NO: 7]	13.7%	< 0.1%	< 0.1%
H[Aib]QGTFTSDVSKYLDGQAAQEFVAWLLKGC [triple agonist of SEQ ID NO: 8]	14.2%	0.1%	< 0.1%
H[Aib]QGTFTSDYSKYLDEKRQKEFVQWLLNTKC (bridge 16-20) [triple agonist of SEQ ID NO: 58]	39.1%	2.6%	0.2%
Y[Aib]QGTFTSDYSKYLDERACKDFVQWLLDHHPSSGQPPPS (bridge 16-20) [triple agonist of SEQ ID NO: 71]	90.1%	12.7%	94.7%
Y[Aib]QGTFTSDYSKYLDEKAAKDFVQWLLDHHPSSGQPPPSC (bridge 16-20) [triple agonist of SEQ ID NO: 77]	38.7%	12.2%	35.5%
Y[Aib]QGTFTSDYSKCLDERAAKEFVQWLLDHHPSSGQPPPS (bridge 16-20) [triple agonist of SEQ ID NO: 69]	24.3%	9.6%	62.8%
Y[Aib]QGTFTSDYSKYLDEKAAKEFVQWLLDHHPSSGQPPPSC (bridge 16-20) [triple agonist of SEQ ID NO: 75]	35.1%	8.5%	18%
{Acetyl(2-(4-imidazolyl))}-[Aib]QGTFTSDYSIAMDEIACKDFVNWLLNTK (bridge 15-19) [triple agonist of SEQ ID NO: 61]	59.8%	< 0.1%	2.8%
Y[Aib]QGTFTSDYSKCLDEKRAKDFVQWLLDHHPSSGQPPPS (bridge 16-20) [triple agonist of SEQ ID NO: 70]	15.1%	71.3%	64.4%
